The source of these data is the nanobody polyreactivity screen of Harvey et al. (2022).

The data set in a line: yeast display, Sf9 membrane polyspecificity reagent, FACS + sequencing; frameworks hold sequencing errors. The method in brief:
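After 36–48 hours of galactose induction, yeast (Saccharomyces cerevisiae BJ5465) displaying a synthetic nanobody library were stained at 4 °C for 1 hour with 10% biotinylated, detergent-solubilized Sf9 membrane reagent. Streptavidin microbeads enriched the stained cells before FACS sorting into low and high (top ~1%) gates on anti-HA and streptavidin fluorescence. Each clone's polyreactivity label reflects its gate of origin.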
Turning to “QVQLVESGGGLVQAGGSLRLSCAASGSIIRGYAIGWFRPAPGKERELVAAITSSGGSTYYADSVKGRFTISRDNAKNTVYLQMNSLKPEETAVYYCTKYRYSYKYNYWGQGTQVTVSS”, the “polyreactivity (PSR sort gate)” value was “high polyreactivity”. For “QVQLVESGGGLVQAGGSLRLSCAASGSIFGDYAMGWYRQAPGKEREFVAGITRRGGRTYYADSVKGRFTISRDNAKNTVYLQMNSLKPEETAVYYCNAVYSSSLRSKYDYWGQGTQVTVSS” the value was “high polyreactivity”; for “QVQLVESGGGLVQAGGSLRLSCAASGRTLSGYAMGWYRQAPGKERELVAVITSGGSTYYADSVKGRFTISRDNAKNTVYLQMNSVKPEDTAVYYCSARRGRRLQDSQYWGQGTQVTVSS”, “high polyreactivity”; for “QVQLVESGGGLVQAGGSLRLSCAASGGTFYVYAMGWYRQAPGKERELVAAISTSDGITYYADSVKGRFTLSRDNAKNTVYLQMNSLKPEDTAVYYCAAEFFSSFTYAYDYWGQGTQVTVSS”, “high polyreactivity”.

Turning to “QVQLVESGGGLVQAGGSLRLSCAASGGTFDVYTMGWYRQAPGKERELVAVISSSGGGTYYADSVKGRFTISRDNAKNTVYLQMNSLKPEDTAVYYCAARRKRQNTYYPYYYWGQGTQVTVSS”, the “polyreactivity (PSR sort gate)” value is reported as “high polyreactivity”. For “QVQLVESGGGLVQAGGSLRLSCAASGGIFWRYAMGWYRPAPGKERELVAAISSRGGSTYYADSVKGRFTISRDNAKNTVYLQMNSLKPEDTAVYYCAADRRYAESGYYWGQGTQVTVSS” the value was “high polyreactivity”; for “QVQLVESGGGLVQAGGSLRLSCAASGSIFVRNVMGWYRQAPGKERELVAGISWNGGSTFYADSVKGRFTISRDNAKNTVYLQMNSLKPEDTAVDYCATPYGRHGWFYLYDYWGQGTQVTVSS”, “low polyreactivity”. In the case of “QVQLVESGGGLVQAGGSLRLSCAPSGIIFAYYAKGWYRQAPVKERELVASISSGGTTKYADSVKGRFTISRDNAKNTVYLQMNSLKPEDTAVYYCAAEHRWRSWDMDYWGQGTQVTVSS”, the “polyreactivity (PSR sort gate)” value is given as “low polyreactivity”. For “QVQLVESGGGLVQAGVSLRLSCAASGFNFVFYDMGWYRQAPGKERELVAGITRNDGSTYYADSVKGRFKISRDNAKNTVYLQMNSLKPEDTAVYYCAADRVRRNDKLAYDYWGQGTQVTVSS” the value was “low polyreactivity”; for “QVQLVESGGGLVQAGGSLRLSCAASGSIFGANAMGWYRQAPGTVRELVAAISRRGGSTYYADSVKGRFTISRDNAKNTVHLQMNSLKPEDTAVYYCNTYPQSLGVKYGYWGQGTQVTVSS”, “high polyreactivity”; for “QVQLVESGGGLVQAGGSLRLSCAASGFTFLYYAMGWYRQAPGKERELVAAISASSDRTYYADSVKGRFTISRDNAMNTVYLQMNSLKPDDTAVYYCAAYNSRVGGYRGYGYWGQGTLVTVSS”, “high polyreactivity”. Then “QVQLVESGGGLVQAGGSLRLSCAASGFTFLGYDMGWYRQAPGKERELVAAIDYSGGSTYYADSVKGRFTISRDNAKNTVYLQMNSLKPEDTAVYYCAAEYQSGPYTWYEYWGQGTQVTVSS”, with “high polyreactivity”; and “QVQLVESGGGLVQAGGSLRLSCAASGIIFRSNAMGWYRQAAGNERELVAAISQRGGSTYYADSVKGRFTISRDNAKNTVYLQMNSLKPEDTAVYYCNALQRRYGGGGNDYWGQGTQVTVSS”, with “high polyreactivity”. Then “QVQLVESGGGLVQAGGSLRLTCAASGRTFTVYAMGGYRQAPGKEREFVAAITERGGSTYYADSVKGRFTISRDNAKNTVYLQMNSLKPEDTAVYYCAAVYYWRPGWYVRFDYWGQGTQVTVSS”, with “low polyreactivity”; and “QVQLVESGGGLVQAGGSLRLSCAASGRIFVYNAMGWYRQAPGKERELVAAITRGGSTYYADSVKGRFTISRDNAKNTVYLQMNSLNPEDTAVYYCASDYQRNDFRWYDYWGQGTQVTVSS”, with “low polyreactivity”; and “QVQLVESGGGLVQAGGSLRLSCAASGRIFYRYAMGWYRQAPGKERELVASITGRGGRTYYADSVKGRFTISRDNAKNSVYLHMNSLKPEDTEVYYCAADWGVHRPPYDSWGQGTQVTVSS”, with “high polyreactivity”.

Turning to “QVQLVESGGGLVHAGGSLRLSCAASGGIFYVNAMGWYRQAPGKERELVADIRYSGTSTYYADSVKGRFTISRDNAKNTVYLQMNSLKPEDTAVYYCAVDAWDTTHVYEQGAERDSWGQGTQVTVSS”, the “polyreactivity (PSR sort gate)” value is “low polyreactivity”.

Regarding “QVQLVESGGGLVQAGGSLRLSSAASGGIFFYNTMGWYRQAPGKERELVAAITTNGDSTYYADSVKGRFTISRDTAKYTVYLQMNSLKPEDTAVYYCAAGRRWARWLFPSRYDYWGQGTQVTVSS”, the “polyreactivity (PSR sort gate)” value is recorded as “low polyreactivity”. Take “QVQLVESVGGLVQAGGSLRLSCAASGRTFSTKAMGWYRQAPGKERELVAVIPSSGVRTYYADSVKGRFTISRDNAKNTVYLQKNSLKPEDTAVYYCAKPYGYRLDYWGQGTQVTVSS”: the “polyreactivity (PSR sort gate)” value is listed as “high polyreactivity”.

Take “QVQLVESGGGLVQAGGRLRLSCPPSGVTFTRNAMGWYRQAPGKERELVAAISSSAGSTSYADSVKGRLTISRDNAKNTVYLQMNSLKPEDTAVYYCATEGSYYSWVGKVGYRYQYHYWGHGTQVTVSS”: the “polyreactivity (PSR sort gate)” value is listed as “high polyreactivity”. As to “QVQLQESGGGLVQAGGSLRLSCAASGNIFLGDTMGWYRQAPGKEREFVAGIARGGNPYYADSVKGRFTISRNNANNTVYLQKNSLKPEDTAVHYCAVQRSHASDYNYWGQGTQVTVSS”, the “polyreactivity (PSR sort gate)” value was “low polyreactivity”.

For “QVQLVESGGGLVQAGGSLRLSCAASGLIFYLYAMGWYRQAPGKEREFVAGINWSGGNTYADSVKGRFTISRDNAKNTVYLQLNSLKPEDTAVYYCAADSLIYTHPYQYDYWGQGTQVTVSS”, the “polyreactivity (PSR sort gate)” value is given as “low polyreactivity”. As for “QVQLVESGGCIVQAGGSLRLSCAASGRICYTNAMVWYRQAPGKERELVAVISWGGDTTYYADSVKGRFTISRDNANNTVYLQMNSLKPEDTAGYYCNADWGPPYEIYDSWGQGTQVTVSS”, the “polyreactivity (PSR sort gate)” value was “low polyreactivity”. Then “QVQLVESGGGLVQAGGSLRLSCAASGFIFRYYAMGWYRQAPGKERELVASIDWSGGNTYYADSVKGRFTISRDNAKNTVYLQMNSLKPEDTAVYYCNRRGMDWGQVTQVTVSS”, with “low polyreactivity”. Regarding “QGQLVESCGGLVQAGGSLRLSCAASGSTFAAYTMGWYRQAPGQERELVAAIRFDGGRTYYADSVKGRFTSSRDNAKNTVYLPMNSLKPEDTAVYYCRAWQSYSYDYWGQGTQVTVSS”, the “polyreactivity (PSR sort gate)” value is reported as “high polyreactivity”. Then “QVQLVESGGGLVQAGGSLRLSCAASGSTFTVNGMGWYRQATGKESELVAAIDGGDGSTYYADSVKGRFTISRDNAKNTVYLQMNSLKPEDTAVYYCAADPPGFTQYGYWGQGTQVTVSS”, with “low polyreactivity”; and “QVQLVESGGGLVQAGGSLRLSCAASGRIFALNAMVWYRQAPGKERELVAAITWGGGSTYYADSVKGRFTISRDNAKNTVYLQMNSLKPEDTAVYYCAADVPSRVYTVISVEVEYWGQGTQVTVSS”, with “low polyreactivity”; and “QVQLVDSGGGLVQAGGSLRLSCAASGRNFLWNAMGWDRQAPGKERELVAGISWRGSSTYYAVSVKGRFTISRDNAKNTVYLQMNSLKPEDTAVYYCAAQGRPYRGQRTGAYGYWGQGTQVTVSS”, with “high polyreactivity”.

For the sequence “QVQLVESGGGLVQAGGSLRVSCAASGGIFWYYTMGWYRQAPGKERELVATISSGGRTYYADSVKGRFTISRDNAKNTVYLQMNSLKPEDTAVYYCAAVGWYHDYYWGQGTQVTVSS”, the “polyreactivity (PSR sort gate)” value is recorded as “high polyreactivity”. For “QVQLVESGGGLVHAGGSLRLSCAASGRTFRYYTMGWYRQAPGKEREFVAAISSTGGTYYADSVKGRFTISRDNAKNTVYLQMNSLKPEDTAVYYCAATFIQVVVNVQLYDYDYWGQGTQVTVSS” the value was “low polyreactivity”; for “QVQLVESGGGLVQAGGSLRLSCAASGSIFYVYAMGWYRQAPGKVRELVAAITSSGTTNYADSVKGSFTISRDNAKNTVYLKMNSLKPEDTAVDSCAADPDSGQVPFDYLGQGTQVTVSS”, “low polyreactivity”; for “QVQLVESGGGLVQAGGSLRLSCAASGSTFDYYAMGWYRQAPGKERELVAAIRWSSGRTYYADSVKGRFTISRDNAKNTVYLQMNSLKPEDTAVYYCAARARGRYKRVALDYWGQGTQVTVSS”, “high polyreactivity”. Turning to “QVQLVESGGGLDQAGGSLRLSCAASGYTYGTYDMRWYRQAPGKERELVAAISIGGSTNYADSVKGRFTISRDNAKNTVYLQMNSLKPEDTAVYYCAAEVNVGTLLLSVIVEDGDYWGQGTQVTVSS”, the “polyreactivity (PSR sort gate)” value is “low polyreactivity”.

As for “QVQLVESGGGLVQAGGSLRLSCAASGSIFVGNAMGWYRQAPGKEWELVAAISAGGSTYYADSVKGRFTISRDNAKNTVYLKLNSLKTEDTAVYYCAAYYVRRYSSRPKDDYWGQGTQVTVSS”, the “polyreactivity (PSR sort gate)” value is “low polyreactivity”. Consider “QVQLVESGGGLVQAGGSLRLSCAASGSTFRANAMGWYRQAPGKERELVAAISSGDSTNYADSVKGRFTISRDNAKKSVYLQMNSLKPEDTAVYYCAAVYTYYWWGSYGYWGQGTQVTVSS”, for which the “polyreactivity (PSR sort gate)” value was “low polyreactivity”.

On to “QVQLVVSGGGLVQAGGSLRLSCAASGRIIFWYALGWYRQAPGKERELVAGITSGGSTNYADSVKGRFTISRDNAKNTVYLQMMRLKPEVTAVYYCNTVDSIPIGSGLYYYWGQGTQVTVSS”, for which the “polyreactivity (PSR sort gate)” value is “low polyreactivity”. Then “QVQLVESGGGLVQAGGSLRLSCAASGSIFAINAMGWYRQAPGKERELVARISWSGGRTYYADSVKVRFTISRDNAKNTVYLQMNSLKPEDTAVYYCAKRYYKSLNRDEFDSWGQGTQGTVSS”, with “high polyreactivity”; and “QVQLVESGGGLVQAGGSLRLSCAASRRTFGYYAMGWYRKAPGKEREMVAAIRSTGSTNYADSVKGRFTISRDNAKNSVYLQMNCLKPEDTAVYYCNAKRRFRYDYWGLGTQVTVSS”, with “low polyreactivity”. Then “QVQLVESGGGLVQAGGSLRLSCSASGSTFESNAMGWYRQAPGKERELVASISGSGGSTFYADSVKGRFTISRDNAKNTVYLQMISLKPEDTAVYYCAAYKEPYYEEYGYWGQGTQVTVSS”, with “low polyreactivity”; and “QDQLVESGGGLVQAGGSLRLSCAASGRIFDDTAMGWSRPAPGKERELVAAITGGGRTNYADSVKGRFTISRDNAKNTVYLQMNSLKPEDTAVYYCAAATYGWVIYIYDYWGQGTQVTVSS”, with “low polyreactivity”.

Take “QVQLVESGGGLVQAGGSLRLSCAASGRTFVWNAMGWYRQAPGTERELVAAITSGGSTNYADSVKGRFTISRDNAKNTVYLQMNSLIPEDTAVYYCGAVWQYSPRMDYWGQGTQVTVSS”: the “polyreactivity (PSR sort gate)” value is “low polyreactivity”.
